According to US20250051433A1:
Blank lines part the entries; values can stand above or below the substance they belong to.

Tests used:
[1] = target: human long-form TSLP protein (Acro, tsp-h5255 or tsp-h52ha) (human) (UniProt Q969D9); assay: ELISA on coated human long-form TSLP, OD450; ambiguous fit of a flat curve (Bottom 0.07414, Top ~ 1078), see non_binding; unit taken from the concentration axis
[2] = target: membrane short-form huTSLP fusion protein (human); assay: FACS on cells expressing membrane short-form huTSLP, MFI; ambiguous fit of a flat curve (Bottom 692.9, Top 827.7), see non_binding; unit taken from the concentration axis
[3] = target: human long form TSLP expressed on cell membrane; assay: FACS on cells expressing the membrane human long-form TSLP fusion protein, MFI; ambiguous fit of a flat curve (Bottom 799.3, Top 857.9), see non_binding; unit taken from the concentration axis
[4] = target: human long form TSLP expressed on cell membrane; assay: FACS on cells expressing the membrane human long-form TSLP fusion protein, MFI; ambiguous fit of a flat curve (Bottom 609.8, Top ~ 596.1), see non_binding; unit taken from the concentration axis
[5] = target: human long form TSLP expressed on cell membrane; assay: FACS on cells expressing the membrane human long-form TSLP fusion protein, MFI; fit of a flat curve (Bottom 626.4, Top ~ 628.6), see non_binding; unit taken from the concentration axis
[6] = target: human long form TSLP expressed on cell membrane; assay: FACS on cells expressing the membrane human long-form TSLP fusion protein, MFI; ambiguous fit of a flat curve (~ 906.7, ~ 1190), column headed IC50, see non_binding; unit taken from the concentration axis
[7] = target: human long form TSLP expressed on cell membrane; assay: FACS on cells expressing the membrane human long-form TSLP fusion protein, MFI; fit of a flat curve (Bottom 695.0, Top 1001), see non_binding; unit taken from the concentration axis

Sequence of human long form TSLP expressed on cell membrane (fusion protein, as listed by the source): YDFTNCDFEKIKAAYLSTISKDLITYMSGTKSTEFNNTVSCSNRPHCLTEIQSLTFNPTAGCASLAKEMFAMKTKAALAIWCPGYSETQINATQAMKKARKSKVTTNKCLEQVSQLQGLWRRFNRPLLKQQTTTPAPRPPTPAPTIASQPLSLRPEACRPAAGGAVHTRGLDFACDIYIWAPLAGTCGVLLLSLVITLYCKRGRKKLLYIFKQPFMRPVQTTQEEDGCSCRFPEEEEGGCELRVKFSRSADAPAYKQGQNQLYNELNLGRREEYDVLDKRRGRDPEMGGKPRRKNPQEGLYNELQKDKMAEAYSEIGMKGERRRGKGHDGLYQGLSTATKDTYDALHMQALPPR
Sequence of membrane short-form huTSLP fusion protein (human) (chain, as listed by the source limits assumed): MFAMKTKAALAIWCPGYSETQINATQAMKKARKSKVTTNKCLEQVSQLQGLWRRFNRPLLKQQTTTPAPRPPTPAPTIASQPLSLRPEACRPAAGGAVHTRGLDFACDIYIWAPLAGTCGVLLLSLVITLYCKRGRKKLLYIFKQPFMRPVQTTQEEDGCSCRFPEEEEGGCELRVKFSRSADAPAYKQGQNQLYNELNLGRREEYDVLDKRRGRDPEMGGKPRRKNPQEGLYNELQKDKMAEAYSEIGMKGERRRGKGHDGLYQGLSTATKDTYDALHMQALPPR
Sequence of human long-form TSLP protein (Acro, tsp-h5255 or tsp-h52ha) (human) (Q969D9 29-159 R127A/R130A limits assumed): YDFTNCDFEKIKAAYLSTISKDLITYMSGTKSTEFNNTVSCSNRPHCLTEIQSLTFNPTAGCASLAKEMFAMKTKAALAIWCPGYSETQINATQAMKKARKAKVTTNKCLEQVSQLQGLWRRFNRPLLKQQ

EC50 [1]: 40.8 µg/mL
EC50 [2]: 0.0115 µg/mL
Substance: Isotype mAb (antibody)

EC50 [3]: 0.0117 µg/mL
EC50 [4]: 0.322 µg/mL
EC50 [5]: 5.86 µg/mL
Substance: IgG2 Isotype (antibody)

EC50 [6]: 0.0411 µg/mL
EC50 [7]: 21.1 µg/mL
Substance: Isotype (antibody)
